One block for each binder: values may come before it. Starred links: 1 amine or outer side, 2 acyl side, 3 side chain; linkers in the order of their positions; H or OH if unused. Non-standard residues stand in square brackets, D forms with d. Primed or numbered codes have the meaning given here. *: point of attachment. NPipG = 2-(piperidin-4-ylamino)acetic acid, O=C(CN(C1CCN([*:3])CC1)[*:1])[*:2]; AC4Abu = α-carboxy-4-aminobutyric acid, O=C(C(CCN[*:1])C(=O)[*:3])[*:2]; Bip = N[C@@H](Cc1ccc(-c2ccccc2)cc1)C(=O)O; dBip = N[C@H](Cc1ccc(-c2ccccc2)cc1)C(=O)O; Oic = O=C(O)[C@@H]1C[C@@H]2CCCC[C@@H]2N1; Phe(4-Cl) = N[C@@H](Cc1ccc(Cl)cc1)C(=O)O; dPhe(4-Cl) = N[C@H](Cc1ccc(Cl)cc1)C(=O)O; Heptadecanoyl = CCCCCCCCCCCCCCCCC(=O)*; Phe(4-I) = N[C@@H](Cc1ccc(I)cc1)C(=O)O; γGlu = O=C(O)[C@H](CCC(=O)[*:2])N[*:1]; NMeR = CN[C@@H](CCCNC(=N)N)C(=O)O; Palmitoyl = CCCCCCCCCCCCCCCC(=O)*; hArg = N=C(N)NCCCC[C@H](N)C(=O)O; Cha = N[C@@H](CC1CCCCC1)C(=O)O; NMeL = CN[C@@H](CC(C)C)C(=O)O; αMeL = CC(C)C[C@](C)(N)C(=O)O; β3hP = O=C(O)C[C@@H]1CCCN1; αMeS = C[C@](N)(CO)C(=O)O; Nle = CCCC[C@H](N)C(=O)O; Pip′ = not defined here; Hexanoyl = CCCCCC(=O)*; AEEA = NCCOCCOCC(=O)O; Aib = CC(C)(N)C(=O)O; Ahx = NCCCCCC(=O)O
How the values were obtained:
rat APJ receptor = biological target: T1, rat APJ receptor (rat, UniProt Q9JHG3 1-377); assay: cell-based or functional assay
T1 sequence (looked up): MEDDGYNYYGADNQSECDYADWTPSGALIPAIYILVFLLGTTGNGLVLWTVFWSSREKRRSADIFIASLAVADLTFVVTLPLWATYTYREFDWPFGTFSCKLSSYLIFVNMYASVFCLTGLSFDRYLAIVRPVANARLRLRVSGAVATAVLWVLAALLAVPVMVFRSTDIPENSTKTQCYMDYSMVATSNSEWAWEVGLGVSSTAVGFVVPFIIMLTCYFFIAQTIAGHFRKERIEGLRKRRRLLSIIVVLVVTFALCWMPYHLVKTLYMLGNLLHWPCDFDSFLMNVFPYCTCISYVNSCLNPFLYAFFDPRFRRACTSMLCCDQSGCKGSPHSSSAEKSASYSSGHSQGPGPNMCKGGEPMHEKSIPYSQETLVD

human APJ receptor = biological target: T2, human APJ receptor (human, UniProt P35414 1-380); assay: cell-based or functional assay
T2 sequence (looked up): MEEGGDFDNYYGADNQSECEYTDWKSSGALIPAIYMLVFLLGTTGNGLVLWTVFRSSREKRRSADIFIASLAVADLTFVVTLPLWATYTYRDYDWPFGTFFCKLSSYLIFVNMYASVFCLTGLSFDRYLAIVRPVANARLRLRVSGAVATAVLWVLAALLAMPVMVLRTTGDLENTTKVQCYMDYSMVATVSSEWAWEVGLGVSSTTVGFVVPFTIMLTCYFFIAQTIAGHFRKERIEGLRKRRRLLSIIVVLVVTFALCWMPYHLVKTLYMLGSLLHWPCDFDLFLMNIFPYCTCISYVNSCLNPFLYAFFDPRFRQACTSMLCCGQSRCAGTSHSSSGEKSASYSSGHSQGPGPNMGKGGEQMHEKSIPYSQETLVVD

- EC50 Rat APJ Receptor (rat APJ receptor): 16.3 nM
- EC50 Human APJ Receptor (human APJ receptor): 3.85 nM
B1: SEQ ID NO: 562 (peptide)
peptide: Hexanoyl-[AC4Abu][AEEA][AEEA]QRP[NMeR][Cha]SHKG[Oic][Nle][Aib][Phe(4-Cl)]-OH
SMILES: CCCCCC(=O)NCCC(C(=O)O)C(=O)NCCOCCOCC(=O)NCCOCCOCC(=O)N[C@@H](CCC(N)=O)C(=O)N[C@@H](CCCNC(=N)N)C(=O)N1CCC[C@H]1C(=O)N(C)[C@@H](CCCNC(=N)N)C(=O)N[C@@H](CC1CCCCC1)C(=O)N[C@@H](CO)C(=O)N[C@@H](Cc1c[nH]cn1)C(=O)N[C@@H](CCCCN)C(=O)NCC(=O)N1[C@H](C(=O)N[C@@H](CCCC)C(=O)NC(C)(C)C(=O)N[C@@H](Cc2ccc(Cl)cc2)C(=O)O)C[C@@H]2CCCC[C@@H]21

- EC50 Rat APJ Receptor (rat APJ receptor): 1.65 nM
- EC50 Human APJ Receptor (human APJ receptor): 1.13 nM
B2: SEQ ID NO: 566 (peptide)
peptide: Hexanoyl-[Ahx][AC4Abu][AEEA][AEEA][hArg][dR]Q[hArg]P[dR][NMeL]SHKG[Oic][Phe(4-I)]P[dBip]-OH
SMILES: CCCCCC(=O)NCCCCCC(=O)NCCC(C(=O)O)C(=O)NCCOCCOCC(=O)NCCOCCOCC(=O)N[C@@H](CCCCNC(=N)N)C(=O)N[C@H](CCCNC(=N)N)C(=O)N[C@@H](CCC(N)=O)C(=O)N[C@@H](CCCCNC(=N)N)C(=O)N1CCC[C@H]1C(=O)N[C@H](CCCNC(=N)N)C(=O)N(C)[C@@H](CC(C)C)C(=O)N[C@@H](CO)C(=O)N[C@@H](Cc1c[nH]cn1)C(=O)N[C@@H](CCCCN)C(=O)NCC(=O)N1[C@H](C(=O)N[C@@H](Cc2ccc(I)cc2)C(=O)N2CCC[C@H]2C(=O)N[C@H](Cc2ccc(-c3ccccc3)cc2)C(=O)O)C[C@@H]2CCCC[C@@H]21

- EC50 Rat APJ Receptor (rat APJ receptor): 5.81 nM
- EC50 Human APJ Receptor (human APJ receptor): 1.42 nM
Binder: H-KFRRQRPRLSHKGPMP-OH [SEQ ID NO: 12]

- EC50 Rat APJ Receptor (rat APJ receptor): 0.994 nM
- EC50 Human APJ Receptor (human APJ receptor): 0.27 nM
Binder: Palmitoyl-[AC4Abu][AEEA][AEEA][dQ][NPipG]P[NMeR][Cha]SHKG[Pip′][Nle][Aib][Phe(4-Cl)]-OH [SEQ ID NO: 646]

- EC50 Rat APJ Receptor (rat APJ receptor): 3.07 nM
- EC50 Human APJ Receptor (human APJ receptor): 1.62 nM
B3: SEQ ID NO: 286 (peptide)
peptide: Hexanoyl-[γGlu][AEEA][AEEA][hArg][dR]Q[hArg]P[dR][NMeL]SHKG[Oic][Phe(4-I)]P[dBip]-OH
SMILES: CCCCCC(=O)N[C@@H](CCC(=O)NCCOCCOCC(=O)NCCOCCOCC(=O)N[C@@H](CCCCNC(=N)N)C(=O)N[C@H](CCCNC(=N)N)C(=O)N[C@@H](CCC(N)=O)C(=O)N[C@@H](CCCCNC(=N)N)C(=O)N1CCC[C@H]1C(=O)N[C@H](CCCNC(=N)N)C(=O)N(C)[C@@H](CC(C)C)C(=O)N[C@@H](CO)C(=O)N[C@@H](Cc1c[nH]cn1)C(=O)N[C@@H](CCCCN)C(=O)NCC(=O)N1[C@H](C(=O)N[C@@H](Cc2ccc(I)cc2)C(=O)N2CCC[C@H]2C(=O)N[C@H](Cc2ccc(-c3ccccc3)cc2)C(=O)O)C[C@@H]2CCCC[C@@H]21)C(=O)O

- EC50 Rat APJ Receptor (rat APJ receptor): 0.641 nM
- EC50 Human APJ Receptor (human APJ receptor): 0.244 nM
B4: SEQ ID NO: 627 (peptide)
peptide: Palmitoyl-[γGlu][AEEA][AEEA][dQ]RP[NMeR][αMeL][αMeS]HKG[Oic][Nle][β3hP][Phe(4-Cl)]-OH
SMILES: CCCCCCCCCCCCCCCC(=O)N[C@@H](CCC(=O)NCCOCCOCC(=O)NCCOCCOCC(=O)N[C@H](CCC(N)=O)C(=O)N[C@@H](CCCNC(=N)N)C(=O)N1CCC[C@H]1C(=O)N(C)[C@@H](CCCNC(=N)N)C(=O)N[C@@](C)(CC(C)C)C(=O)N[C@@](C)(CO)C(=O)N[C@@H](Cc1c[nH]cn1)C(=O)N[C@@H](CCCCN)C(=O)NCC(=O)N1[C@H](C(=O)N[C@@H](CCCC)C(=O)N2CCC[C@H]2CC(=O)N[C@@H](Cc2ccc(Cl)cc2)C(=O)O)C[C@@H]2CCCC[C@@H]21)C(=O)O

- EC50 Rat APJ Receptor (rat APJ receptor): 5.3 nM
- EC50 Human APJ Receptor (human APJ receptor): 2.45 nM
B5: SEQ ID NO: 629 (peptide)
peptide: Palmitoyl-[γGlu][AEEA][AEEA][dQ]RP[NMeR][αMeL]S[Bip]KG[Oic][Nle][β3hP][Phe(4-Cl)]-OH
SMILES: CCCCCCCCCCCCCCCC(=O)N[C@@H](CCC(=O)NCCOCCOCC(=O)NCCOCCOCC(=O)N[C@H](CCC(N)=O)C(=O)N[C@@H](CCCNC(=N)N)C(=O)N1CCC[C@H]1C(=O)N(C)[C@@H](CCCNC(=N)N)C(=O)N[C@@](C)(CC(C)C)C(=O)N[C@@H](CO)C(=O)N[C@@H](Cc1ccc(-c2ccccc2)cc1)C(=O)N[C@@H](CCCCN)C(=O)NCC(=O)N1[C@H](C(=O)N[C@@H](CCCC)C(=O)N2CCC[C@H]2CC(=O)N[C@@H](Cc2ccc(Cl)cc2)C(=O)O)C[C@@H]2CCCC[C@@H]21)C(=O)O

- EC50 Rat APJ Receptor (rat APJ receptor): 12.7 nM
- EC50 Human APJ Receptor (human APJ receptor): 4.3 nM
Binder: Hexanoyl-[AC4Abu][AEEA][AEEA][hArg][dR]Q[hArg]P[dR][NMeL]SHKG[Pip′][Phe(4-I)]P[dBip]-OH [SEQ ID NO: 563]

- EC50 Rat APJ Receptor (rat APJ receptor): 173 nM
- EC50 Human APJ Receptor (human APJ receptor): 40.1 nM
Binder: XXXQRPRLSHKGPMPF ({ODDA}[AC4Abu][Aeea][Aeea]QRPRLSHKGPMPF{COOH}) [SEQ ID NO: 290]

- EC50 Rat APJ Receptor (rat APJ receptor): 5.17 nM
- EC50 Human APJ Receptor (human APJ receptor): 3.33 nM
B6: SEQ ID NO: 576 (peptide)
peptide: Heptadecanoyl-[AC4Abu][AEEA][AEEA][dQ]RP[NMeR][Cha]SHKG[Oic][Nle]P[dPhe(4-Cl)]-OH
SMILES: CCCCCCCCCCCCCCCCC(=O)NCCC(C(=O)O)C(=O)NCCOCCOCC(=O)NCCOCCOCC(=O)N[C@H](CCC(N)=O)C(=O)N[C@@H](CCCNC(=N)N)C(=O)N1CCC[C@H]1C(=O)N(C)[C@@H](CCCNC(=N)N)C(=O)N[C@@H](CC1CCCCC1)C(=O)N[C@@H](CO)C(=O)N[C@@H](Cc1c[nH]cn1)C(=O)N[C@@H](CCCCN)C(=O)NCC(=O)N1[C@H](C(=O)N[C@@H](CCCC)C(=O)N2CCC[C@H]2C(=O)N[C@H](Cc2ccc(Cl)cc2)C(=O)O)C[C@@H]2CCCC[C@@H]21

Source: patent US10941182 (Amgen, dated 2021)
